From patent US20100311648A1

Experiments:
[1] = target: human melanocortin-4 receptor (human) (UniProt P32245); assay: cell-based or functional assay
[2] = target: melanocortin-1 receptor (mouse (B-16 melanoma cells); in some instances human (hMC1-R)) (UniProt Q01727); assay: [I125]-NDP-α-MSH competition, MC1-R membranes
[3] = target: human melanocortin-4 receptor (human) (UniProt P32245); assay: [I125]-NDP-α-MSH competition, hMC4-R HEK-293 membranes

Chain of melanocortin-1 receptor (mouse (B-16 melanoma cells); in some instances human (hMC1-R)) (Q01727 whole entry): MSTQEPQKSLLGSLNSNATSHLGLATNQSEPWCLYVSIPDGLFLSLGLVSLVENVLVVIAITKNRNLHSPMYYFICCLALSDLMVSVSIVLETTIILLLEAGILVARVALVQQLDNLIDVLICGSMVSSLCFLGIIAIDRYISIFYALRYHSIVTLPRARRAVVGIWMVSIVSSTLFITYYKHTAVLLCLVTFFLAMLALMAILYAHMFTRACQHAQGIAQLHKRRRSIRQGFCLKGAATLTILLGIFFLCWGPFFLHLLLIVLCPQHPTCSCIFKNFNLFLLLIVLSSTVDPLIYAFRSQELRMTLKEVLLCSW
Chain of human melanocortin-4 receptor (human) (P32245 whole entry): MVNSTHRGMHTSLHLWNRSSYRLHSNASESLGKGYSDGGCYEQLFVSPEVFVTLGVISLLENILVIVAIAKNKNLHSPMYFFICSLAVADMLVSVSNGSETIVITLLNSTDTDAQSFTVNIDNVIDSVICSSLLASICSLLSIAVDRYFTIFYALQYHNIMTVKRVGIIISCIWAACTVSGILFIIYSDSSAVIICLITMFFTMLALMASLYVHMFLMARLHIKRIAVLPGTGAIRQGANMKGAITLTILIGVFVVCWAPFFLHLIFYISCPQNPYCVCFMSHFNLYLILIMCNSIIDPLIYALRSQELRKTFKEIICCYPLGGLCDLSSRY

EC50, cAMP, 0.1 ng/mL Doxycycline [1] [nM] | EC50, cAMP, 10 ng/mL Doxycycline [1] [nM] | Intrinsic Activity, cAMP, 0.1 ng/mL Doxycycline [1] [%] | Intrinsic Activity, cAMP, 10 ng/mL Doxycycline [1] [%] | Ki [2] [nM] | Ki [3] [nM] | Substance
5 | 0.3 | 41 | 98 | 30 | 11 | Ac-Arg-cyclo(Glu-Dab(Acetyl)-D-Phe(2-Cl)-Arg-Trp-Orn)-NH2 (peptide)
– | 0.245 | 11 | 100 | 0.5 | 0.055 | Ac-Arg-cyclo(Glu-Dab-D-Phe(2,4-diCl)-Arg-Trp-Orn)-NH2 (peptide)
– | 0.5 | 8 | 97 | – | 0.085 | Ac-Arg-cyclo(Glu-Dab-D-Phe(2,4-diMe)-Arg-Trp-Orn)-NH2 (peptide)
0.125 | 0.06 | 85 | 96 | – | 0.6 | Ac-Arg-cyclo(Glu-Dab-D-Phe(2-CF3)-Arg-Trp-Orn)-NH2 (peptide)
34 | 0.5 | 64 | 97 | – | 45 | Ac-Arg-cyclo(Glu-Dab-D-Phe(2-CN)-Arg-Trp-Orn)-NH2 (peptide)
0.34 | 0.045 | 91 | 96 | 1 | – | Ac-Arg-cyclo(Glu-Dab-D-Phe(2-Cl)-Arg-Trp-Orn)-NH2 (peptide)
0.09 | 0.035 | 91 | 89 | 0.8 | 0.7 | Ac-Arg-cyclo(Glu-Dab-D-Phe(2-F)-Arg-Trp-Orn)-NH2 (peptide)
0.14 | 0.085 | 83 | 97 | – | 0.5 | Ac-Arg-cyclo(Glu-Dab-D-Phe(2-Me)-Arg-Trp-Orn)-NH2 (peptide)
– | 0.2 | 78 | 93 | – | 11 | Ac-Arg-cyclo(Glu-Dab-D-Phe(2-NO2)-Arg-Trp-Orn)-NH2 (peptide)
0.7 | 0.33 | 37 | 97 | – | 0.667 | Ac-Arg-cyclo(Glu-Dab-D-Phe(3,4,5-triF)-Arg-Trp-Orn)-NH2 (peptide)
– | 0.38 | 5 | 92 | 0.2 | 0.055 | Ac-Arg-cyclo(Glu-Dab-D-Phe(3,4-diCl)-Arg-Trp-Orn)-NH2 (peptide)
0.125 | 0.12 | 74 | 90 | – | 0.3 | Ac-Arg-cyclo(Glu-Dab-D-Phe(3,4-diF)-Arg-Trp-Orn)-NH2 (peptide)
75 | 2 | 23 | 94 | – | – | Ac-Arg-cyclo(Glu-Dab-D-Phe(3,4-diOMe)-Arg-Trp-Orn)-NH2 (peptide)
0.95 | 0.12 | 64 | 95 | – | 2 | Ac-Arg-cyclo(Glu-Dab-D-Phe(3,5-diF)-Arg-Trp-Orn)-NH2 (peptide)
8 | 0.4 | 16 | 93 | 9 | 0.95 | Ac-Arg-cyclo(Glu-Dab-D-Phe(3-CF3)-Arg-Trp-Orn)-NH2 (peptide)
37 | 2 | 29 | 100 | 43 | 33 | Ac-Arg-cyclo(Glu-Dab-D-Phe(3-CN)-Arg-Trp-Orn)-NH2 (peptide)
0.56 | 0.095 | 36 | 99 | 1 | – | Ac-Arg-cyclo(Glu-Dab-D-Phe(3-Cl)-Arg-Trp-Orn)-NH2 (peptide)
0.45 | 0.17 | 77 | 94 | 2 | 2 | Ac-Arg-cyclo(Glu-Dab-D-Phe(3-F)-Arg-Trp-Orn)-NH2 (peptide)
0.42 | 0.22 | 35 | 97 | – | 0.4 | Ac-Arg-cyclo(Glu-Dab-D-Phe(3-Me)-Arg-Trp-Orn)-NH2 (peptide)

EC50, cAMP, 0.1 ng/mL Doxycycline [1] [nM] | EC50, cAMP, 10 ng/mL Doxycycline [1] [nM] | Intrinsic Activity, cAMP, 0.1 ng/mL Doxycycline [1] [%] | Intrinsic Activity, cAMP, 10 ng/mL Doxycycline [1] [%] | Ki [2] [nM] | Ki [3] [nM] | Substance
2 | 0.55 | 17 | 95 | – | 0.7 | Ac-Arg-cyclo(Glu-Dab-D-Phe(3-NO2)-Arg-Trp-Orn)-NH2 (peptide)
1 | 0.065 | 64 | 100 | – | – | Ac-Arg-cyclo(Glu-Dab-D-Phe(3-OMe)-Arg-Trp-Orn)-NH2 (peptide)
– | – | 0.5 | 53 | – | 0.06 | Ac-Arg-cyclo(Glu-Dab-D-Phe(4-CF3)-Arg-Trp-Orn)-NH2 (peptide)
0.3 | 0.135 | 48 | 100 | 5 | 0.833 | Ac-Arg-cyclo(Glu-Dab-D-Phe(4-CN)-Arg-Trp-Orn)-NH2 (peptide)
0.07 | 0.16 | 28 | 100 | 0.3 | 0.08 | Ac-Arg-cyclo(Glu-Dab-D-Phe(4-Cl)-Arg-Trp-Orn)-NH2 (peptide)
0.165 | 0.2 | 16 | 90 | – | 0.145 | Ac-Arg-cyclo(Glu-Dab-D-Phe(4-Me)-Arg-Trp-Orn)-NH2 (peptide)
29 | 0.6 | 35 | 94 | – | 48 | Ac-Arg-cyclo(Glu-Dab-D-Phe(4-NH2)-Arg-Trp-Orn)-NH2 (peptide)
0.7 | 0.45 | 15 | 99 | – | 0.45 | Ac-Arg-cyclo(Glu-Dab-D-Phe(4-NO2)-Arg-Trp-Orn)-NH2 (peptide)
– | 0.8 | 14 | 100 | – | 0.5 | Ac-Arg-cyclo(Glu-Dab-D-Phe(4-Ph)-Arg-Trp-Orn)-NH2 (peptide)
– | – | 2 | 9 | – | 4 | Ac-Arg-cyclo(Glu-Dab-D-Phe(4-tBu)-Arg-Trp-Orn)-NH2 (peptide)
48 | 0.55 | 71 | 87 | – | 75 | Ac-Arg-cyclo(Glu-Dab-D-Tyr-Arg-Trp-Orn)-NH2 (peptide)
16 | 0.47 | 23 | 84 | – | 9 | Ac-Arg-cyclo(Glu-Dap-D-Phe(2-Cl)-Arg-Trp-Orn)-NH2 (peptide)
– | 0.95 | 6 | 89 | – | 4 | Ac-Arg-cyclo(Glu-Dap-D-Phe(3-Cl)-Arg-Trp-Orn)-NH2 (peptide)
1 | 0.08 | 57 | 90 | 53 | – | Ac-Arg-cyclo(Glu-Hyp-D-Phe(2-F)-Arg-Trp-Orn)-NH2 (peptide)
0.95 | 0.14 | 36 | 93 | – | 1 | Ac-Arg-cyclo(Glu-Orn-D-Phe(3-Cl)-Arg-Trp-Orn)-NH2 (peptide)
– | 4 | 6 | 93 | 545 | – | Ac-Arg-cyclo(Glu-Phe(3-C(═O)-NH2)-D-Phe(2-Cl)-D-Phe-Arg-Trp-Orn)-NH2 (peptide)
0.31 | 0.373 | 36 | 100 | – | 0.3 | Ac-Arg-cyclo(Glu-Ser(Bzl)-D-Phe(2-Cl)-Arg-Trp-Orn)-NH2 (peptide)
0.13 | 0.13 | 86 | 90 | – | 0.95 | Ac-D-Arg-cyclo(Orn-His-D-Phe(2-F)-Arg-Trp-Glu)-NH2 (peptide)
